In PMC3918441 (Cell reports, 2014):

How the values were obtained:
yeast KDM5 PHD finger = target: T1, yeast KDM5 PHD finger (S. cerevisiae, Zn2+-bound; 15N-labelled); assay: NMR titration
T1 chain: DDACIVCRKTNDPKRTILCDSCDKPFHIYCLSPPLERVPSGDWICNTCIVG

human KDM5D PHD1 finger = human KDM5D PHD1 finger (human, Zn2+-bound; 15N-labelled); assay: NMR titration

Kd (yeast KDM5 PHD finger): 117 µM
Kd (human KDM5D PHD1 finger): 3.5 mM
Binder: ARTKQTARKSTG (peptide, UniProt P68431 2-13, looked up) [H3K4me0 peptide (aa 1-12 of H3)]
